Data: PMC4449314
Read-outs that look alike come from different tables or passages of the source.

Columns and labels:
Assay in all cases: non-reducing SDS-PAGE of disulfide-linked products after anti-HA IP
[1] = target: HA-tagged human DAP12 aspartic acid-to-alanine mutant (human)
[2] = target: HA-tagged human DAP12 aspartic acid-to-asparagine mutant (human)
[3] = target: HA-tagged human DAP12 aspartic acid-to-asparagine mutant (human); remark: listed apart in the source
[4] = target: HA-tagged human DAP12 aspartic acid-to-glutamic acid mutant (human)
[5] = target: HA-tagged human DAP12 aspartic acid-to-glutamine mutant (human)
[6] = target: HA-tagged human DAP12 threonine-to-alanine mutant (human)

**Q.** Which fold reduction of tetramer compared to WT [1] does the source give for “HA-tagged human DAP12 aspartic acid-to-alanine mutant (natural protein)” here?
**A.** 2 fold

**Q.** What about the fold reduction of trimer compared to WT [1] of the same substance?
**A.** 10 fold

**Q.** And the stoichiometry N [1]?
**A.** 2

**Q.** What does the source list for “HA-tagged human DAP12 aspartic acid-to-asparagine mutant (natural protein)”?
**A.** stoichiometry N [2]: 2; stoichiometry N [3]: 3

**Q.** Which stoichiometry N [4] does the source give for “HA-tagged human DAP12 aspartic acid-to-glutamic acid mutant (natural protein)” here?
**A.** 2

**Q.** How did the stoichiometry N [5] turn out when “HA-tagged human DAP12 aspartic acid-to-glutamine mutant (natural protein)” was run?
**A.** 2

**Q.** Which fold decrease of trimer compared to WT [6] does the source give for “HA-tagged human DAP12 threonine-to-alanine mutant (natural protein)” here?
**A.** 5 fold

**Q.** What about the fold increase of tetramer compared to WT [6] of the same substance?
**A.** 2 fold

**Q.** What about the stoichiometry N [6] of the same substance?
**A.** 2
